Reference: patent publication US10428140B2, “Anti-EphA4 antibody” (EISAI R&D MANAGEMENT CO., LTD., priority 2015, dated 2019)

Key:
Test in all cases: Selectivity ELISA of humanized antibodies for human Eph receptor
Format in all cases: binding
Details in all cases: coated protein 1 nM
human EphA6 = biological target: T1, human EphA6 (Homo sapiens, UniProt Q9UF33)
T1 construct: a protein of the extracellular region of each human Eph receptor fused with the SEAP protein and the His tag; made in house; host or cells: Expi293F cells (culture supernatant)
T1 sequence (Q9UF33 23-550 limits assumed): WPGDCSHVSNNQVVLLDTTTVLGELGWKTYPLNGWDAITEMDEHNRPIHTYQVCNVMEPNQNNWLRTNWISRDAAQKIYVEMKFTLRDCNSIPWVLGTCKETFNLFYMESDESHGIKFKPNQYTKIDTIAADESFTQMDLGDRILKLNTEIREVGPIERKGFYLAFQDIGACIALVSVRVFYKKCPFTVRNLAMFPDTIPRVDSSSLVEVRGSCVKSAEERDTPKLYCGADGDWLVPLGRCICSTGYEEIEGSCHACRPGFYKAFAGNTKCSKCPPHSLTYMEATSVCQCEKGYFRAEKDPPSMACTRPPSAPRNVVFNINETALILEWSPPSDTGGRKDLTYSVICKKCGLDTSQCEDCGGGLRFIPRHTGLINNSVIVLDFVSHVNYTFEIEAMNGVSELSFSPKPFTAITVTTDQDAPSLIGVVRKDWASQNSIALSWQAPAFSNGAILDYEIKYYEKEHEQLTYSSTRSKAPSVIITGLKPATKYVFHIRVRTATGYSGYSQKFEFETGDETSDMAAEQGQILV
Summary of the method: (§1)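 Capture ELISA: anti-6-His coat, 1% BlockAce block, Eph ECD-SEAP-His (1 nM final, Expi293F supernatant) 1 h RT, humanized Ab 1 h RT, HRP anti-IgG 1 h RT, TMB, H2SO4 stop, A450.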

human EphA10 = biological target: T2, human EphA10 (Homo sapiens, UniProt Q5JZY3)
T2 construct: a protein of the extracellular region of each human Eph receptor fused with the SEAP protein and the His tag; made in house; host or cells: Expi293F cells (culture supernatant)
T2 sequence (Q5JZY3 34-565 limits assumed): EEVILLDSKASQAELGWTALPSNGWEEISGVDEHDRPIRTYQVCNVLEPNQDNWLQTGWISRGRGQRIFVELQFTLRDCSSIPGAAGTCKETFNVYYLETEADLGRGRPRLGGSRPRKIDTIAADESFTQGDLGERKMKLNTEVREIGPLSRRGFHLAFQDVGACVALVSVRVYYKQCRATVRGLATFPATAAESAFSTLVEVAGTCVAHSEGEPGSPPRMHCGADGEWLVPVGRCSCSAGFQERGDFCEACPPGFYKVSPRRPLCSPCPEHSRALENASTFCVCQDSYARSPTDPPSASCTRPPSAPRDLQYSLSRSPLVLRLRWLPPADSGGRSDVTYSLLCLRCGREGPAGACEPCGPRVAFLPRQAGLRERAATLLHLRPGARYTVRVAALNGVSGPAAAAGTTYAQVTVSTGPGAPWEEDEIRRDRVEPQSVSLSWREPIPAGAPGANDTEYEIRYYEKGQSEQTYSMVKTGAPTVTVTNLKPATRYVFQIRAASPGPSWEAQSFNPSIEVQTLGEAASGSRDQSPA
Summary of the method: as §1

human EphA1 = biological target: T3, human EphA1 (Homo sapiens, UniProt P21709)
T3 construct: a protein of the extracellular region of each human Eph receptor fused with the SEAP protein and the His tag; made in house; host or cells: Expi293F cells (culture supernatant)
T3 sequence (P21709 26-547 limits assumed): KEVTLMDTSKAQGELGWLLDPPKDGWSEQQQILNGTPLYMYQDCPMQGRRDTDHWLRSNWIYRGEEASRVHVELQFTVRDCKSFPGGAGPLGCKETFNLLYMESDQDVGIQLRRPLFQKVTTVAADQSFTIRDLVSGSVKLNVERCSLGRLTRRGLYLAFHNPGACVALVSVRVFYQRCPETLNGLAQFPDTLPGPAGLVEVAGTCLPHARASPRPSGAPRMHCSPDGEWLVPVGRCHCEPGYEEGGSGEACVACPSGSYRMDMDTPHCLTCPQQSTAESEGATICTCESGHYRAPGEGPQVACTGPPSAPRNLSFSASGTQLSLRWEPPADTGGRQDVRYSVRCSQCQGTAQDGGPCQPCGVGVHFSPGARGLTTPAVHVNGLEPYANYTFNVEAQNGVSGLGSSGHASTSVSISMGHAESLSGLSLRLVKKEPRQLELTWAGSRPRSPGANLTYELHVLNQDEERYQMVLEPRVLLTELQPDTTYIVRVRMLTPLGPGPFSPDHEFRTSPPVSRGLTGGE
Summary of the method: as §1

B1: 158 (antibody, V domains shown)
VH: QVQLVQSGSELKKPGASVKVSCKASGYTFTDYSMHWVRQAPGQGLKWMGWINTETGEPTYAQGFTGRFVFSLDTSVSTAYLQISSLKAEDTAVYYCARIPLYYYGSRYWYFDVWGQGTTVTVSS
VL: DIQMTQSPSSLSASVGDRVTITCRASENIYRNLAWYQQKPGKAPQLLLYAATNLADGVPSRFSGSGSGTDYTLTISSLQPEDFATYYCQHFWGTPWTFGQGTKVEIK
modifications: synthetic humanized antibody heavy chain variable region sequence; synthetic humanized antibody light chain variable region sequence
Human EphA6
  hEphA6-SEAP-: absorbance at 450 nm, percentage with respect to hEphA4-SEAP-His as 100%: 10.0%
Human EphA10
  hEphA10-SEAP-: absorbance at 450 nm, percentage with respect to hEphA4-SEAP-His as 100%: 6.4%
Human EphA1
  hEphA1-SEAP-: absorbance at 450 nm, percentage with respect to hEphA4-SEAP-His as 100%: 6.5%

B2: 144 (antibody, V domains shown)
VH: QVQLVQSGSELKKPGASVKVSCKASGYTFTDYSMHWVRQAPGQGLEWMGWINTETGEPTYADDFKGRFVFSLDTSVSTAYLQISSLKAEDTAVYYCARIPLYYYGSRYWYFDVWGQGTTVTVSS
VL: DIQMTQSPSSLSASVGDRVTITCRASENIYRNLAWYQQKPGKAPQLLLYAATNLADGVPSRFSGSGSGTDYTLTISSLQPEDFATYYCQHFWGTPWTFGQGTKVEIK
modifications: synthetic humanized antibody heavy chain variable region sequence; synthetic humanized antibody light chain variable region sequence
Human EphA6
  hEphA6-SEAP-: absorbance at 450 nm, percentage with respect to hEphA4-SEAP-His as 100%: 8.1%
Human EphA10
  hEphA10-SEAP-: absorbance at 450 nm, percentage with respect to hEphA4-SEAP-His as 100%: 5.7%
Human EphA1
  hEphA1-SEAP-: absorbance at 450 nm, percentage with respect to hEphA4-SEAP-His as 100%: 5.6%

B3: 135 (antibody, V domains shown)
VH: QVQLVQSGSELKKPGASVKVSCKASGYTFTDYSMHWVRQAPGQGLEWMGWINTETGEPTYADDFKGRFVFSLDTSVSTAYLQISSLKAEDTAVYYCARIPLYYYGSRYWYFDVWGQGTTVTVSS
VL: EIVMTQSPATLSVSPGERATLSCRASENIYRNLAWYQQKPGQSPRLLIYAATNLADGIPARFSGSGSGTEYTLTISSLQSEDFAVYYCQHFWGTPWTFGQGTKVEIK
modifications: synthetic humanized antibody heavy chain variable region sequence; synthetic humanized antibody light chain variable region sequence
Human EphA6
  hEphA6-SEAP-: absorbance at 450 nm, percentage with respect to hEphA4-SEAP-His as 100%: 7.0%
Human EphA10
  hEphA10-SEAP-: absorbance at 450 nm, percentage with respect to hEphA4-SEAP-His as 100%: 5.1%
Human EphA1
  hEphA1-SEAP-: absorbance at 450 nm, percentage with respect to hEphA4-SEAP-His as 100%: 5.2%

B4: 160 (antibody, V domains shown)
VH: QIQLVQSGSELKKPGASVKVSCKASGYTFTDYSMHWVRQAPGQGLKWMGWINTETGEPTYADDFKGRFVFSLDTSVSTAYLQISSLKAEDTAVYYCARIPLYYYGSRYWYFDVWGQGTTVTVSS
VL: DIQMTQSPSSLSASVGDRVTITCRASENIYRNLAWYQQKPGKAPQLLLYAATNLADGVPSRFSGSGSGTDYTLTISSLQPEDFATYYCQHFWGTPWTFGQGTKVEIK
modifications: synthetic humanized antibody heavy chain variable region sequence; synthetic humanized antibody light chain variable region sequence
Human EphA6
  hEphA6-SEAP-: absorbance at 450 nm, percentage with respect to hEphA4-SEAP-His as 100%: 8.7%
Human EphA10
  hEphA10-SEAP-: absorbance at 450 nm, percentage with respect to hEphA4-SEAP-His as 100%: 5.0%
Human EphA1
  hEphA1-SEAP-: absorbance at 450 nm, percentage with respect to hEphA4-SEAP-His as 100%: 6.5%

B5: 134 (antibody, V domains shown)
VH: QVQLVQSGSELKKPGASVKVSCKASGYTFTDYSMHWVRQAPGQGLKWMGWINTETGEPTYAQGFTGRFVFSLDTSVSTAYLQISSLKAEDTAVYYCARIPLYYYGSRYWYFDVWGQGTTVTVSS
VL: EIVMTQSPATLSVSPGERATLSCRASENIYRNLAWYQQKPGQSPRLLIYAATNLADGIPARFSGSGSGTEYTLTISSLQSEDFAVYYCQHFWGTPWTFGQGTKVEIK
modifications: synthetic humanized antibody heavy chain variable region sequence; synthetic humanized antibody light chain variable region sequence
Human EphA6
  hEphA6-SEAP-: absorbance at 450 nm, percentage with respect to hEphA4-SEAP-His as 100%: 9.6%
Human EphA10
  hEphA10-SEAP-: absorbance at 450 nm, percentage with respect to hEphA4-SEAP-His as 100%: 5.0%
Human EphA1
  hEphA1-SEAP-: absorbance at 450 nm, percentage with respect to hEphA4-SEAP-His as 100%: 5.1%

B6: 159 (antibody, V domains shown)
VH: QVQLVQSGSELKKPGASVKVSCKASGYTFTDYSMHWVRQAPGQGLKWMGWINTETGEPTYADDFKGRFVFSLDTSVSTAYLQISSLKAEDTAVYYCARIPLYYYGSRYWYFDVWGQGTTVTVSS
VL: DIQMTQSPSSLSASVGDRVTITCRASENIYRNLAWYQQKPGKAPQLLLYAATNLADGVPSRFSGSGSGTDYTLTISSLQPEDFATYYCQHFWGTPWTFGQGTKVEIK
modifications: synthetic humanized antibody heavy chain variable region sequence; synthetic humanized antibody light chain variable region sequence
Human EphA6
  hEphA6-SEAP-: absorbance at 450 nm, percentage with respect to hEphA4-SEAP-His as 100%: 7.6%
Human EphA10
  hEphA10-SEAP-: absorbance at 450 nm, percentage with respect to hEphA4-SEAP-His as 100%: 5.3%
Human EphA1
  hEphA1-SEAP-: absorbance at 450 nm, percentage with respect to hEphA4-SEAP-His as 100%: 5.4%

B7: 132 (antibody, V domains shown)
VH: QIQLVQSGSELKKPGASVKVSCKASGYTFTDYSMHWVRQAPGQGLKWMGWINTETGEPTYAQGFTGRFVFSLDTSVSTAYLQISSLKAEDTAVYYCARIPLYYYGSRYWYFDVWGQGTTVTVSS
VL: EIVMTQSPATLSVSPGERATLSCRASENIYRNLAWYQQKPGQSPRLLIYAATNLADGIPARFSGSGSGTEYTLTISSLQSEDFAVYYCQHFWGTPWTFGQGTKVEIK
modifications: synthetic humanized antibody heavy chain variable region sequence; synthetic humanized antibody light chain variable region sequence
Human EphA6
  hEphA6-SEAP-: absorbance at 450 nm, percentage with respect to hEphA4-SEAP-His as 100%: 9.7%
Human EphA10
  hEphA10-SEAP-: absorbance at 450 nm, percentage with respect to hEphA4-SEAP-His as 100%: 4.7%
Human EphA1
  hEphA1-SEAP-: absorbance at 450 nm, percentage with respect to hEphA4-SEAP-His as 100%: 4.8%

B8: 133 (antibody, V domains shown)
VH: QVQLVQSGSELKKPGASVKVSCKASGYTFTDYSMHWVRQAPGQGLEWMGWINTETGEPTYAQGFTGRFVFSLDTSVSTAYLQISSLKAEDTAVYYCARIPLYYYGSRYWYFDVWGQGTTVTVSS
VL: EIVMTQSPATLSVSPGERATLSCRASENIYRNLAWYQQKPGQSPRLLIYAATNLADGIPARFSGSGSGTEYTLTISSLQSEDFAVYYCQHFWGTPWTFGQGTKVEIK
modifications: synthetic humanized antibody heavy chain variable region sequence; synthetic humanized antibody light chain variable region sequence
Human EphA6
  hEphA6-SEAP-: absorbance at 450 nm, percentage with respect to hEphA4-SEAP-His as 100%: 8.8%
Human EphA10
  hEphA10-SEAP-: absorbance at 450 nm, percentage with respect to hEphA4-SEAP-His as 100%: 4.7%
Human EphA1
  hEphA1-SEAP-: absorbance at 450 nm, percentage with respect to hEphA4-SEAP-His as 100%: 4.9%
